In patent US20110076232A1 (published 2011):
Changes are numbered by the printed parent chain. Ends that are not written are not given here.

Columns and labels:
[1] = biological target: wtEGFR-FLAG (N-terminally FLAG-tagged wild-type EGFR on Ba/F3 cells) (human) (UniProt P00533); test: FACS median fluorescence, Ba/F3 cells; reference anti-FLAG M2
[2] = biological target: C271A/C283A-EGFR (full length, on Ba/F3 cells) (human) (UniProt P00533); test: FACS median fluorescence, Ba/F3 cells, four clones; reference anti-FLAG M2
[3] = biological target: wild-type epidermal growth factor receptor (wtEGFR) (human) (UniProt P00533); test: Scatchard, A431 cells
[4] = biological target: T1, 15N-labelled EGFR287-302 peptide with methionine mutated to leucine (human, not fully specified (bridges); cysteine pairing not given here; also: 15N-labelled (residues not given here)); test: NMR, perturbation of 15N HSQC spectra
T1 peptide: CGADSYELEEDGVRKC

[5] = biological target: T2, EGFR peptide 287-302 (806 peptide epitope) (human, not fully specified (bridges); printed as 287CGADSYEMEEDGVRKC302; cysteine pairing not given here); test: BIAcore, immobilised peptide 287-302, antibody 200 nM
T2 peptide: CGADSYEMEEDGVRKC

[6] = biological target: T3, Peptide C: LEEKKGNYVVTDH(K-Biot)-OH (biotin on the added C-terminal Lys (K-Biot)); test: BIAcore, Peptide C on streptavidin chip
T3 peptide: LEEKKGNYVVTDHK

For monoclonal antibody 528, the ratio of antibody binding mAb 528/M2 [1] was 1.37, the ratio of antibody binding mAb 528/M2 [2] was 1.08 and the binding sites per cell (sites per cell) [3] was 2e+06. For the same molecule, the receptors per cell (receptors per cell) [3] was 2e+06.

B1: Fab fragment of mAb806 (Fab, V domains shown)
VH: DVQLQESGPSLVKPSQSLSLTCTVTGYSITSDFAWNWIRQFPGNKLEWMGYISYSGNTRYNPSLKSRISITRDTSKNQFFLQLNSVTIEDTATYYCVTAGRGFPYWGQGTLVTVSA
VL: DILMTQSPSSMSVSLGDTVSITCHSSQDINSNIGWLQQRPGKSFKGLIYHGTNLDDEVPSRFSGSGSGADYSLTISSLESEDFADYYCVQYAQFPWTFGGGTKLEIKR
notes: papain Fab of the intact mAb; also called Fab806
B1: binds [4].

B2: monoclonal antibody 1133 (mAb1133) (antibody, V domains shown)
VH: B1 VH with E6G, F33Y, K65R, I88T, V97A
VL: B1 VL with S20N, R39K, E57G, A92G
notes: murine IgG2a
In the case of B2, the “maximal binding (RU)” value [5] is reported as 800 RU.

B3: monoclonal antibody 806 (mAb806) (antibody, V domains shown)
VH: B1 VH
VL: B1 VL
notes: murine IgG2b; also called m806
B3: no binding (tested: 100 nM) [6].
